For test [1], the target named is soluble methane monooxygenase hydroxylase component (sMMOH), (αβγ)2, from Methylosinus trichosporium OB3b (Methylosinus trichosporium OB3b) (UniProt P27353). Kind of test: NMR titration.
Test [2] has the same target. Put plainly: NMR titration. This is another data set of the same source.
Test [3] has the same target. Put plainly: NMR titration. This is another data set of the same source.
In test [4] the target is MMOB (Methylococcus capsulatus) (UniProt P18797). As to conditions: cited from earlier work.
Test [5] has as its target MMOR (Methylococcus capsulatus) (UniProt P22868). Particulars: cited from earlier work.
Test [6] concerns the target MMOR (Methylosinus trichosporium) (UniProt Q53563). As to conditions: cited from earlier work.
Test [7] deals with MMOB (Methylosinus trichosporium) (UniProt P27356). Put plainly: fluorescence quenching. Particulars: cited from earlier work.

Read-outs that look alike come from different tables or passages of the source.

With “methane monooxygenase reductase component (MMOR), unlabelled (from UniProt Q53563 1-340) (enzyme)”, the values for the Kd in test [1] and in test [2] were 90 nM and 60 nM, respectively. Also, the half dissociation value was found to be 9.1 µM in test [2] and 13.7 µM in test [3].
On to sMMOH (diferric) (from UniProt P22869), for which the Kd was 550 nM in test [4] and 900 nM in test [5].
Regarding sMMOH (diferric) (from UniProt P27353), the Kd in test [6] was 10 nM; in test [7], 68 nM.

Usually Kd stands for the free concentration of one partner at which half of the binding sites on the other are occupied at equilibrium, for simple one-to-one binding.

(Values after article PMC8345336.)
